Reference: PMC9482650, “Quantitative fragmentomics allow affinity mapping of interactomes” (Nature Communications, 2022)

What was measured:
Assay in all cases: holdup assay
Set-up in all cases: key: below the threshold = too weak to quantify, mostly under pKd 3.1 to 4
[1] = target: IL16_2, Q14005
[2] = target: PARD3B_2, Q8TEW8
[3] = target: RIMS1, Q86UR5
[4] = target: T1, PTPN4, P29074
T1 sequence (P29074 512-599, limits assumed, looked up): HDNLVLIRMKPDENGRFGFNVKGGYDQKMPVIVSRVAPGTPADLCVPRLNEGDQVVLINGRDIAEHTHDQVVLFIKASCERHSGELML

[5] = target: GIPC3, Q8TF64
Chain of GIPC3, Q8TF64 (Q8TF64 107-202): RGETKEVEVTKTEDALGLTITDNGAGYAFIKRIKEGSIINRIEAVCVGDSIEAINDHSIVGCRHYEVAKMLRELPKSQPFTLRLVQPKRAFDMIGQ

[6] = target: T2, RGS12, O14924
T2 sequence (O14924 17-108, limits assumed, looked up): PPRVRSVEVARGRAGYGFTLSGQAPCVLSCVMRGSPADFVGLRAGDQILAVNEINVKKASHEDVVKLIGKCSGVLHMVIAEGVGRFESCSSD

[7] = target: T3, SHROOM3, Q8TF72
T3 sequence (Q8TF72 20-120, limits assumed, looked up): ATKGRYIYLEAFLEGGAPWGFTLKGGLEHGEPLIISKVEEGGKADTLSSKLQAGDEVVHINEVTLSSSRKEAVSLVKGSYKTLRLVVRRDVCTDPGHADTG

[8] = target: NHERF4_3, Q86UT5
Chain of NHERF4_3, Q86UT5 (Q86UT5 325-412): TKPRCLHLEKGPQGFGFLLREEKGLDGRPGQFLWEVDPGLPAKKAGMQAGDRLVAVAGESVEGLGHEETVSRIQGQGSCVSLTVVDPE

[9] = target: T4, USH1C_2, Q9Y6N9
T4 sequence (Q9Y6N9 206-303, limits assumed, looked up): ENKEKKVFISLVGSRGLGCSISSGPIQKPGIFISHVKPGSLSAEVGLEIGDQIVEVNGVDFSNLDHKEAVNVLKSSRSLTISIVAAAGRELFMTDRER

[10] = target: MAGIX, Q9H6Y5
Chain of MAGIX, Q9H6Y5 (Q9H6Y5 118-211): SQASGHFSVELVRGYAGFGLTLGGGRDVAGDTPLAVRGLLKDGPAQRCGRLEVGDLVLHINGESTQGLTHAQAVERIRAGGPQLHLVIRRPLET

[11] = target: T5, PDZD2_6, O15018
T5 sequence (O15018 2745-2839, limits assumed, looked up): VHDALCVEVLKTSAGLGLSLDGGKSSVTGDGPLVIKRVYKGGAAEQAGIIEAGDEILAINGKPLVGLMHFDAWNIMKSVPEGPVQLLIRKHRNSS

[12] = target: RIMS2, Q9UQ26
Chain of RIMS2, Q9UQ26 (Q9UQ26 637-758): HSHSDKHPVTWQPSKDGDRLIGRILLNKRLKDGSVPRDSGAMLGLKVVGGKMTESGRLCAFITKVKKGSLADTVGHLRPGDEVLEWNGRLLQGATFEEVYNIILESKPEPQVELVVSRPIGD

[13] = target: MAGI3_4, Q5TCQ9
Chain of MAGI3_4, Q5TCQ9 (Q5TCQ9 716-815): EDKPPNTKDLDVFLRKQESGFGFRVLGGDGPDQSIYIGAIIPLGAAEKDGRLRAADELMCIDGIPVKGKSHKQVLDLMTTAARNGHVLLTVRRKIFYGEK

[14] = target: MAST3, O60307
Chain of MAST3, O60307 (O60307 945-1048): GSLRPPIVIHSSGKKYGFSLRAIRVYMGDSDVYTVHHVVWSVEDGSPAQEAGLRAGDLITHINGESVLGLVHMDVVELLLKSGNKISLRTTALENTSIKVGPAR

[15] = target: PDZD9, Q8IXQ8
Chain of PDZD9, Q8IXQ8 (Q8IXQ8 23-120): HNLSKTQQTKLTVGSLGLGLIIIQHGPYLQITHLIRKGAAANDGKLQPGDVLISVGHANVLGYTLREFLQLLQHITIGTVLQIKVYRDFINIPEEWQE

[16] = target: PDZRN4_2, Q6ZMN7
Chain of PDZRN4_2, Q6ZMN7 (Q6ZMN7 389-498): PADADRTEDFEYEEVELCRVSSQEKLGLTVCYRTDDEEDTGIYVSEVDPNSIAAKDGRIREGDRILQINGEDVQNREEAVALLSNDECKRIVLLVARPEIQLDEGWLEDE

[17] = target: NHERF2_1, Q15599
Chain of NHERF2_1, Q15599 (Q15599 9-91): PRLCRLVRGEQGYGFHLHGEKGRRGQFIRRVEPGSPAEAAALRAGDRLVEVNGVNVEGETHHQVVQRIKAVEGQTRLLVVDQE

[18] = target: T6, MPDZ_11, O75970
T6 sequence (O75970 1720-1817, limits assumed, looked up): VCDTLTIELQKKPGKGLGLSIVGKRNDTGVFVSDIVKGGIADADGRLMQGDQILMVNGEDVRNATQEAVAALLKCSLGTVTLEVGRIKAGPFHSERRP

[19] = target: T7, PDZD7_2, Q9H5P4
T7 sequence (Q9H5P4 205-303, limits assumed, looked up): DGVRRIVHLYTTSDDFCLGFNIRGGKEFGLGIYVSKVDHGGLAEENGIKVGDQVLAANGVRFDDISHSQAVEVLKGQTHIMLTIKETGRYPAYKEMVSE

[20] = target: DVL2, O14641
Chain of DVL2, O14641 (O14641 260-359): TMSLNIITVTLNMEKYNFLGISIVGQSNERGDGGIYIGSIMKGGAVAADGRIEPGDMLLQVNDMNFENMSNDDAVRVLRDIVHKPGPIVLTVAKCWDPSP

[21] = target: T8, MPP1, Q00013
T8 sequence (Q00013 66-162, limits assumed, looked up): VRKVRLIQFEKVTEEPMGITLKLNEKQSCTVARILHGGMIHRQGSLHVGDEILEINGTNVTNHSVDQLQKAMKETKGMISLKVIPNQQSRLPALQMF

[22] = target: T9, MPDZ_3, O75970
T9 sequence (O75970 372-473, limits assumed, looked up): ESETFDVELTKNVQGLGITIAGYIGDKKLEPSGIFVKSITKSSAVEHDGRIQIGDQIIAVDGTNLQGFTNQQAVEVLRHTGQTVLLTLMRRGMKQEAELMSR

[23] = target: T10, TJP3_2, O95049
T10 sequence (O95049 190-282, limits assumed, looked up): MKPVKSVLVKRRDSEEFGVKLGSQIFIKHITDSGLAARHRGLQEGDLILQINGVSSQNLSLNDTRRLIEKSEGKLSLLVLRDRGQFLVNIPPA

[24] = target: T11, SYNPO2L, Q9H987
T11 sequence (Q9H987 1-98, limits assumed, looked up): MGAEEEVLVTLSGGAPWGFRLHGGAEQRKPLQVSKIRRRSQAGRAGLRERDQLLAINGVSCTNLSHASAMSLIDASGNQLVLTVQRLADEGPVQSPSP

[25] = target: T12, SIPA1L3, O60292
T12 sequence (O60292 961-1052, limits assumed, looked up): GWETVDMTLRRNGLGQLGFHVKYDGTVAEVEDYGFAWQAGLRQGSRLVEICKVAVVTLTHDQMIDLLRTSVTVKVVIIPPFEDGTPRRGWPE

[26] = plain residues with an end cap or a label only (N-terminal biotin on a linker: ttds)
[27] = plain residues with an end cap or a label only (N-terminal biotin on a linker: none)

Chain of IL16_2, Q14005 (Q14005 350-450): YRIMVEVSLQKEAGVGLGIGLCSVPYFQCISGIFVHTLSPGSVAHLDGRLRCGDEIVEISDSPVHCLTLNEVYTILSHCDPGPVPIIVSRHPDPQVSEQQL
Chain of RIMS1, Q86UR5 (Q86UR5 584-692): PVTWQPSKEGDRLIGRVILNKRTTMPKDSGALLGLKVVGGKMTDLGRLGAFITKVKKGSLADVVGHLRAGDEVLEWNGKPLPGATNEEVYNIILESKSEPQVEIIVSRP
Chain of PARD3B_2, Q8TEW8 (Q8TEW8 376-471): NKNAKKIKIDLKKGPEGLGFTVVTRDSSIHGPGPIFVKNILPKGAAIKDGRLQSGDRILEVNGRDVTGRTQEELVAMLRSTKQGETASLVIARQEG

How did the pKd [1, 26] turn out when RPLPRKVSQL [DOCK4, Q8N1I0] was run?
The pKd was “below the threshold”.

What about the pKd [2, 26] of the same binder?
Its pKd is “below the threshold”.

What about the pKd [3, 26] of the same binder?
The pKd was “below the threshold”.

What about the pKd [4, 26] of the same binder?
Its pKd is “below the threshold”.

And the pKd [5, 26]?
The pKd was 4.39.

What about the pKd [6, 26] of the same binder?
Its pKd is “below the threshold”.

And the pKd [7, 26]?
Its pKd is “below the threshold”.

What about the pKd [8, 26] of the same binder?
Its pKd is 4.21.

What about the pKd [9, 26] of the same binder?
The pKd was “below the threshold”.

And the pKd [10, 26]?
The pKd was “below the threshold”.

And the pKd [11, 26]?
The pKd was “below the threshold”.

What about the pKd [12, 26] of the same binder?
The pKd was “below the threshold”.

And the pKd [13, 26]?
Its pKd is 4.12.

And the pKd [14, 26]?
The pKd was “below the threshold”.

And the pKd [15, 26]?
The pKd was “below the threshold”.

What about the pKd [16, 26] of the same binder?
Its pKd is 4.14.

What about the pKd [17, 26] of the same binder?
The pKd was “below the threshold”.

And the pKd [18, 26]?
Its pKd is “below the threshold”.

What about the pKd [19, 26] of the same binder?
Its pKd is “below the threshold”.

And the pKd [20, 26]?
Its pKd is “below the threshold”.

What about the pKd [21, 26] of the same binder?
The pKd was 4.29.

What about the pKd [22, 26] of the same binder?
Its pKd is “below the threshold”.

What about the pKd [23, 26] of the same binder?
The pKd was “below the threshold”.

And the pKd [24, 26]?
The pKd was “below the threshold”.

And the pKd [25, 26]?
The pKd was “below the threshold”.

What does the source list for SGSRPSATVV [HPV73-E6, Q82005]?
pKd [1, 26]: below the threshold; pKd [2, 26]: 4.24; pKd [3, 26]: below the threshold; pKd [4, 26]: 4.65; pKd [5, 26]: below the threshold; pKd [6, 26]: below the threshold; pKd [7, 26]: below the threshold; pKd [8, 26]: below the threshold; pKd [9, 26]: below the threshold; pKd [10, 26]: below the threshold; pKd [11, 26]: below the threshold; pKd [12, 26]: below the threshold; pKd [13, 26]: below the threshold; pKd [14, 26]: below the threshold; pKd [15, 26]: below the threshold; pKd [16, 26]: below the threshold; pKd [17, 26]: below the threshold; pKd [18, 26]: below the threshold; pKd [19, 26]: below the threshold; pKd [20, 26]: below the threshold; pKd [21, 26]: 4.14; pKd [22, 26]: below the threshold; pKd [23, 26]: below the threshold; pKd [24, 26]: below the threshold; pKd [25, 26]: 4.17

NLNSSRVPDLLV [SARS-CoV2-E, P0DTC4] was tested. Which pKd [1, 27] did it give?
Its pKd is “below the threshold”.

And the pKd [2, 27]?
Its pKd is “below the threshold”.

What about the pKd [3, 27] of the same binder?
Its pKd is “below the threshold”.

What about the pKd [4, 27] of the same binder?
Its pKd is “below the threshold”.

What about the pKd [5, 27] of the same binder?
Its pKd is “below the threshold”.

And the pKd [6, 27]?
The pKd was “below the threshold”.

What about the pKd [7, 27] of the same binder?
Its pKd is “below the threshold”.

What about the pKd [8, 27] of the same binder?
Its pKd is “below the threshold”.

And the pKd [9, 27]?
The pKd was “below the threshold”.

What about the pKd [10, 27] of the same binder?
Its pKd is “below the threshold”.

And the pKd [11, 27]?
The pKd was 4.07.

What about the pKd [12, 27] of the same binder?
Its pKd is “below the threshold”.

And the pKd [13, 27]?
The pKd was “below the threshold”.

And the pKd [14, 27]?
Its pKd is “below the threshold”.

And the pKd [15, 27]?
The pKd was 3.94.

And the pKd [16, 27]?
Its pKd is “below the threshold”.

What about the pKd [17, 27] of the same binder?
Its pKd is “below the threshold”.

And the pKd [18, 27]?
The pKd was “below the threshold”.

And the pKd [19, 27]?
Its pKd is “below the threshold”.

What about the pKd [20, 27] of the same binder?
Its pKd is “below the threshold”.

What about the pKd [21, 27] of the same binder?
Its pKd is “below the threshold”.

What about the pKd [22, 27] of the same binder?
Its pKd is “below the threshold”.

What about the pKd [23, 27] of the same binder?
Its pKd is “below the threshold”.

And the pKd [24, 27]?
The pKd was “below the threshold”.

And the pKd [25, 27]?
The pKd was “below the threshold”.
